Measurements reported in paper doi:10.1101/2025.07.24.666505.

Columns and labels:
[1] = target: Vibrio cholerae ParE2 (VcParE2), wild type, C-terminally histidine-tagged (Vibrio cholerae); assay: BLI
[2] = target: DNA gyrase (GyrA+GyrB, full Gyrase);VcParE2 (Escherichia coli;Vibrio cholerae) (UniProt P0AES4+P0AES6+Q9KMJ0); assay: EMSA
Sequence of UniProt P0AES4 (P0AES4 whole entry, one chain of several): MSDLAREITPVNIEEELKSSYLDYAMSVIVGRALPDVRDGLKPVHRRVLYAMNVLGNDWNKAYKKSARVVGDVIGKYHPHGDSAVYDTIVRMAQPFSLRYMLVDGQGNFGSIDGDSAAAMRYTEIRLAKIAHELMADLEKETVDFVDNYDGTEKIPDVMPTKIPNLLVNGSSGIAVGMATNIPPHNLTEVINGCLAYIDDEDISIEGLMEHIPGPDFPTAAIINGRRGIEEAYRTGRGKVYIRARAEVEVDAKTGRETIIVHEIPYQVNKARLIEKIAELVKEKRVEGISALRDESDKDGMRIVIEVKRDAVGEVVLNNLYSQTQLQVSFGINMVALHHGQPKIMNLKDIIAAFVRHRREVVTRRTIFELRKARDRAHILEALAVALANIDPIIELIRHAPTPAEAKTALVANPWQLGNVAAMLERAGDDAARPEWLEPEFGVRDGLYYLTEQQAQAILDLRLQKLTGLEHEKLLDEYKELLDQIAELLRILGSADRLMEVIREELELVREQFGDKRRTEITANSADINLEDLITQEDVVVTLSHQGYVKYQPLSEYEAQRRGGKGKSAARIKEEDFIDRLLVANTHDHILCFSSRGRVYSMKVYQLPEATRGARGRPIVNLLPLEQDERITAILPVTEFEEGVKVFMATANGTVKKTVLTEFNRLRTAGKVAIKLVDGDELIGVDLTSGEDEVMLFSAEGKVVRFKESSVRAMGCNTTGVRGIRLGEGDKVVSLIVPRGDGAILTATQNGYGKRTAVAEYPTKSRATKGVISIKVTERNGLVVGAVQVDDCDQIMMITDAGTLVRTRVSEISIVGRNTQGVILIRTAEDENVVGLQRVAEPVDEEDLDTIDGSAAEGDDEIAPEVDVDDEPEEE

Substance | Kd [1] | binding [2]
VcParD2 peptide E41-S60 (N-terminal helix of the C-terminal domain) | 778 nM | –
GCTGCTCATCATGGTTTGTGAGCAGTCAGTTTGCGGGAGGTGCGGGAAAATCTGGGGTTATGCTATTTGAGTACTGGAGAAAGAAAGTGAAAGGAAGATAAAACGGGATTCATACACCGTTAAATACCGGTTTAAAAATCCCGTGGCGCGTTTTAAAAAATCTGTGCGGCTGATTTTATGCCTGATTCTGTTTATTGCCTCAGAGCGGCGCTGACGCGTTTTCTGATGGCATCAAAAATTTCCTGTTCCCCGGTCTTATCCAGCCCCATATAAGGACGCGCAGGAA (double strand) [286-bp Mu strong gyrase site fragment] | – | binds
